Laboratory results: the PETadex activity labels (doi:10.1002/cbic.201800097)
Numbering of substitutions follows the chain as printed.

B1: unnamed (protein)
chain: NPYARGPNPTAASLEASAGPFTVRSFTVSRPSGYGAGTVYYPTNAGGTVGAIAIVPGYTARQSSIKWWGPRLASHGFVVITIDTNSTLDQPSSRSSQQMAALRQVASLNGTSSSPIYGKVDTARMGVMGWSMGGGGSLISAANNPSLKAAAPQAPWDSSTNFSSVTVPTLIFACENDSIAPVNSSALPIYDSMSRNAKQFLEINGGSHFCANSGNSNQALIGKKGVAWMKRFMDNDTRYSTFACENPNSTRVSDFRTANCS
B2: unnamed (protein)
chain: B1 chain with S131A, F209S
B3: unnamed (protein)
chain: B1 chain with W130A, F209S
B4: unnamed (protein)
chain: B1 chain with Q153L, F209S
B5: unnamed (protein)
chain: B1 chain with R94A, F209S
B6: unnamed (protein)
chain: B1 chain with M132A, F209S
B7: unnamed (protein)
chain: B1 chain with W130H, F209S
B8: unnamed (protein)
chain: B1 chain with I179A, F209S
B9: unnamed (protein)
chain: B1 chain with D177A, F209S
B10: unnamed (protein)
chain: B1 chain with C174A, F209S
B11: unnamed (protein)
chain: B1 chain with S185H, F209S
B12: unnamed (protein)
chain: MNFPRASRLMQAAVLGGLMAVSAAATAQTNPYARGPNPTAASLEASAGPFTVRSFTVSRPSGYGAGTVYYPTNAGGTVGAIAIVPGYTARQSSIKWWGPRLASHGFVVITIDTNSTLDQPSSRSSQQMAALRQVASLNGTSSSPIYGKVDTARMGVMGWSMGGGGSLISAANNPSLKAAAPQAPWDSSTNFSSVTVPTLIFACENDSIAPVNSSALPIYDSMSRNAKQFLEINGGSASCANSGNSNQALIGKKGVAWMKRFMDNDTRYSTFACENPNSTRVSDFRTANCS

substrate: PET; test: Proxy for plastic degradation [Released monomer concentration (HPLC/LC-MS) (TPA)]; conditions: pH 9; part of the chain shown

First: B1
Second: B7
The “Proxy for plastic degradation” value of the first is 5.7-fold lower: 3.5 nM for the first, 20 nM for the second.

substrate: PET; test: Proxy for plastic degradation [Released monomer concentration (HPLC/LC-MS) (MHET)]; conditions: pH 9; part of the chain shown

Going from B1 to B7, the “Proxy for plastic degradation” value rises from 4 nM to 20 nM (5-fold).

substrate: BHET; test: Proxy for plastic degradation [Released monomer concentration (HPLC/LC-MS) (MHET+TPA)]; conditions: pH 7.5; part of the chain shown

B1 and B7 are within 1.5-fold of each other in “Proxy for plastic degradation” value: 1.6 µM for the first, 1.94 µM for the second.

same assay, conditions: pH 7.5

Going from B2 to B3, the “Proxy for plastic degradation” value rises from 0.06 µM to 0.23 µM (3.8-fold).

Going from B4 to B5, the “Proxy for plastic degradation” value falls from 1.26 µM to 0.6 µM (2.1-fold).

B6 and B8 are within 1.5-fold of each other in “Proxy for plastic degradation” value: 0.57 µM for the first, 0.54 µM for the second.

First: B9
Second: B10
The “Proxy for plastic degradation” value of the first is 8.7-fold lower: 0.03 µM for the first, 0.26 µM for the second.

Compared with B11, B12 is 15-fold lower in “Proxy for plastic degradation” value: 0.45 µM for the first, 0.03 µM for the second.

substrate: PET; test: Proxy for plastic degradation [Released monomer concentration (HPLC/LC-MS) (MHET)]; conditions: pH 9

Going from B4 to B5, the “Proxy for plastic degradation” value falls from 8 nM to 1 nM (8-fold).
